Target: the molecule itself
Assay: negative-stain transmission electron microscopy with 2D image reconstruction; SlaA-enriched sacculi (lipids and SlaB removed by SDS washes) sonicated to fragments, on glow discharged grid, 2% uranyl acetate; Fourier domain processing; p3 hexagonal lattice

B1: S-layer large protein (SlaA) from Saccharolobus solfataricus P2 (natural protein, UniProt Q980C7 36-1231, looked up)
chain: AAIYTIPSVTSVSNTSNIVINLFFNATSNSTVGAQASAFNYGLAINYTLDAITFTVVLPSGTSYPLIKLNAKNFANYGYYDLAHNSIVLLLNTTASSTAKELAYSYEQSIGVTPSASYKIYNYTNKTVNVNQYMNELPLSMLIYMATNGKYNNLASLPVGTKLEFTYAGVTYIIAVSPTVKLVGELLNPLYTANSKMLPGTNYAVGRSNITVAVYDNLITTTTSPFNFTLTYSSLAPALIYWFVIANTTYTNNGASTPTASFQAPPFKQYFPSNSTILYSAAPTKSSILMFNGQMNVTAHENVTLTLQTGTNIYTSPNFNVTPPGNYTFSGKLGVGFNGFIYQNGSATLTATIFNGTINFFFSSTGQKAAFTFFLVPIVPINLGDNNGATVIYNGVSLNTGFPQVVVMFNITGNFTKSGSNYLLYGSVYEAELKPLGSTQLQKLAGATDSTQFVGNLISSASSPLVSYFNYGESTTTITGTSLSFTVLMPLKFIVERLGYIYLVTFHIWGPSATVTVTGVDYHGTQIALGSFRAYVALPSFYTLPKTPLVGLTCDNMYTLAQVSDAGSVLETSTANSNANNATVIGPYDLMSNAGLHVAIYNGSKLVKSGNLGLLPNATTAPITTTITLNGQTVALTYSSAPTAIYPVDFKFEPGFSYSVTTNVIYNTSIPTYVVTVYMPLKYILQTKIVMWYVSPDYAAYFYYSSTGQYQTSNVTLTFANVTPELVMPQVFPVGKLYMPFGINDPYYVFYSSISIGPQSGVIEAVENGFNVGNITSITVELNGMNESIVLSPLNVSKLLISSNLGEVSQCSPLFTTTLFNISALASLLGLPNAAALNGSYLYVTYHDIISGAYVTNRTLLVVGQFYVMPPTTPGSVEWILTAKYINATTGIPVEISYAVVQQPSAKVVDINAANASITQIQVTGVKIVSKYATVTVMYNPSNASTIVYMNGMFVASYGGNLISSLSETSTFGVYYGAVVNLYVATGTLSSPNGTMYVVLGSHKVAVGTANLYTYAGYHFGPYTALPLVSNVTFTVQDPVTHATLTGQTTLGAFNNTPIRLAPLGVSIPQTAQYKVFYYYSTPLVLSPTSQYIVLSVTSVISYPYPFYIETVSFLGYNVTTGTPVPGTPAFQTVYSPSLGPGVVLQVPVQSYQFISLSTPSEPHTVVMFAVPFAGGPAISLYPTFLVYANVTAISS
modifications: glycosylated (sites not given)
notes: SlaA, S-layer large protein of Saccharolobus solfataricus P2; UniProt KB entry Q980C7; Mr 131 kDa as printed; Native protein isolated as an assembled S-layer lattice (sacculi and fragments), not as soluble monomers; also called surface layer large protein; SSO sacculi; source: endogenous, Saccharolobus solfataricus P2; sacculi extracted with sodium lauroylsarcosine and sonication (SEG), washed …
binding result: binds
